Consider two molecules from patent publication US11291722B2, “Vaccine composition comprising cyclic peptides, antibodies to the cyclic peptides or an anticancer composition comprising the same” (Industry Academic Cooperation Foundation, Hallym University, priority 2016, dated 2022).

One data set has as its target T1, TM4SF5 (Homo sapiens, UniProt O14894).
T1 sequence (O14894 1-197): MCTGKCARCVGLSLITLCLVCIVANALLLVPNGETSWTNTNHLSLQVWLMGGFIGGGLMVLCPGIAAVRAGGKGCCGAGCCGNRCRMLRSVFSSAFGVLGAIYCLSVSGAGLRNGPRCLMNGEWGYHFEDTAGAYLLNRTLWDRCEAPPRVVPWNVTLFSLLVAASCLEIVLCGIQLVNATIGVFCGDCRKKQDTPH
Particulars: in vitro and in vivo; cited from earlier work.

The target in data set [1] is T2, hTM4SF5EC2-C cyclic peptide (Homo sapiens, UniProt O14894, G133C/V156C).
T2 construct: purchased Peptron, Co., Ltd; host or cells: chemical synthesis
T2 sequence (O14894 131-157 G133C/V156C): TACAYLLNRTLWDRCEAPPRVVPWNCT
The data set can be described thus: ELISA binding of monoclonal antibody to cyclic peptide. How it is done:
Mice were sacrificed before and 10 days after each administration to obtain serum. To determine the total IgG titer and amount, a 96-well immunoplate (Nalgen Nunc International) was coated with 5 μg/ml hTM4SF5EC2-C cyclic peptide and blocked with 0.05% PBST containing 1% BSA for two hours. After removal of blocking solution, 100 μl of the culture supernatant was added and incubated for 2 hours at room temperature, then washed with PBST and incubated for 2 hours with the detection antibody such as horseradish peroxidase (HRP)-bound an anti-IgG antibody. Colorimetric assays were developed with TMB substrate solutions and absorbance was measured at 450 nm using a Spectra Max 250 microplate reader.
In general terms: ELISA stands for enzyme-linked immunosorbent assay.

Data set [2] addresses T3, hTM4SF5EC2-C cyclic peptide (Homo sapiens, UniProt O14894, G133C).
T3 construct: purchased Peptron, Co., Ltd; host or cells: chemical synthesis
T3 sequence (O14894 with tags, fused parts or gaps G133C): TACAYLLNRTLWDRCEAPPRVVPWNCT
The data set can be described thus: SPR (surface plasmon resonance) analysis. The format is binding. Particulars: 25° C. As to the method: FIG. 6 represents purification and characterization of mouse anti-TM4SF5 monoclonal antibodies recognizing TM4SF5 cyclic peptides. (A) Hydrops abdominis was producted from BALB/c mice by injecting i.p. into the abdominal cavity with hybridoma clone (2A10 clone) derived from FIG. 5. Anti-TM4SF5 monoclonal antibody was purified using protein-A agarose column chromatography and the purified antibody was identified by SDS-PAGE and Coomassie blue staining. (B) The isotype was determined by obtaining titration curves using purified monoclonal antibodies. (C) A binding affinity of monoclonal antibody for cyclic peptide hTM4SF5EC2-C was determined by using ELISA. (D) A binding affinity of monoclonal antibody for cyclic peptide […] was determined by using Reichert Analytical Instruments SPR 7500DC (Reichert). […] (E) HEK 293F-EV (empty vector) and proteins from HEK 293F-TM4SF5 cells were separated by SDS-PAGE and analyzed by Western Blot using anti-TM4SF5 monoclonal antibody (mEC2-C), anti-Myc antibody or anti-β-actin antibody. HEK 293F-EV and proteins of HEK 293F-TM4SF5 cell were immunoprecipitated with mEC2-C and analyzed by Western blot using anti-Myc antibody. […]
The affinities of anti-hTM4SF5 monoclonal antibody (mEC2-C) and humanized anti-TM4SF5 antibody (hEC2-C-2) binding to hTM4SF5EC2-C cyclic peptide were measured at 25° C. using the Reichert SPR system. […]

The target of data set [3] is T4, Myc-tagged recombinant TM4SF5 protein (Homo sapiens, UniProt O14894).
T4 construct: expressed in transfected cells
T4 sequence (O14894 1-197): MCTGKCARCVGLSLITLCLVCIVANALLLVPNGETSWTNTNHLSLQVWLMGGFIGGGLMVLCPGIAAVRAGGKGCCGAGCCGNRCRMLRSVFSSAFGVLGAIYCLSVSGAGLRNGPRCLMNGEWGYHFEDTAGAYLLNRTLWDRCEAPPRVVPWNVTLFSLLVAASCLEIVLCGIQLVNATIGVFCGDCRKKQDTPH
In words: Western blot and immunoprecipitation on TM4SF5-overexpressing HEK 293F cells. The conditions noted are these: HEK 293F cells overexpressing TM4SF5 vs HEK 293F control. The format is binding. As to the method: Human TM4SF5 cDNA was amplified by RT-PCR from Huh-7 mRNA using the following primer set: hTM4SF5 5′ primer, 5′-[…]-3′ (SEQ ID NO: 24), hTM4SF5 3′ primer, 5′-[…]-3′ (SEQ ID NO: 25). The cDNA fragment was cloned into the expression vector pcDNA-3.1/Myc-His(−)B (Invitrogen). HEK 293F cells (1×10^6 cells/ml) were transfected with 2.5 μg/ml hTM4SF5/pcDNA and 7.5 μg/ml polyethylenimine (PEI, Polysciences) for the production of stable cell lines expressing hTM4SF5, and the transfected cells were collected using 500 μg/ml G418 (Calbiochem) for 14 days. Expression of Myc-tagged hTM4SF5 was confirmed by Western blot analysis using anti-Myc-tag antibodies.
In order to analyze the specificity of anti-TM4SF5 monoclonal antibody and humanized anti-TM4SF5 antibody, TM4SF5-overexpressed cell lysates were separated on SDS-PAGE, and Western blot and immunoprecipitation assays were performed as described on Kwon S, Kim D, Rhee J W, Park J A, Kim D W, Kim D S, Lee Y, Kwon H J. BMC Biol. 2010; 8:23. In order to identify the expression of E-cadherin and β-catenin in humanized anti-TM4SF5 antibody-treated cells, cell lysates were analyzed with SDS-PAGE and Western blotting method as descried in Kwon S, Choi K C, Kim Y E, Ha Y W, Kim D, Park B K, Wu G, Kim D S, Lee Y, Kwon H J. Cancer Res. 2014; 74(14):3844-3856.
Background: Immunoblotting shows a protein as a band on a membrane.

The subject of the next data set is HT-29 cells. The format is in vivo, BALB/cAnNCri-nu/nu mice. Particulars: 25 mg/kg tail vein twice a week; compared to PBS control. As to the method: Mouse tumor models were established by implanting HT-29 cells into BALB/cAnNCri-nu/nu mice. PBS or anti-TM4SF5 monoclonal antibody was injected into the mice when the tumor size reaches 5 mm in diameter and the tumor growth was monitored for 31 days (n=6 each). (A) Experimental schedule. (B) Macroscopic appearance of colon cancer tissue. (C) Tumor volume (width^2×length/2). (D) Tumor weight. (E) Weight.
Twelve BALB/cAnNCri-nu/nu mice were subcutaneously injected with 5×10^6 HT-29 cells containing 50% matrigel (BD biosciences) on the dorsal right flank. When the tumor diameter reached 5 mm, the mice were randomly sorted into two treatment groups (6 mice/each group) of PBS and anti-TM4SF5 monoclonal antibody (mEC2-C). Antibodies (25 mg/kg) were injected into the tail vein twice a week. During 30 days after injecting the cancer cell, the tumor diameter was measured per 3 or 4 day-interval, and the tumor volume was calculated according to an equation Width^2×length/2. When the tumor size is reached ±600 mm^3, BACB/cAnNCri-NCri-nu/nu mice were sacrificed, and the tumor weight was measured.

For `Cc1ccc(S(=O)(=O)Nc2ccc(C(=O)/C=C/c3ccc(O)cc3)cc2)cc1` [TSAHC, 4′-(p-toluenesulfonyl-amido)-4-hydroxychalcone], the “HCC growth and metastasis” value at TM4SF5 was “inhibited HCC growth and metastasis in vitro and in vivo”.

B1: mEC2-C: mouse IgG3 anti-TM4SF5 monoclonal antibody from hybridoma clone 2A10, recognizing hTM4SF5EC2-C cyclic peptide (antibody, V domains shown)
VH: QVQLEESGPGLVAPSQSLSIICTVSGFSLTSYGVTWVRQPPGKGLEWLGVIWSDGSTNYQSALISRLTISRDNSKSQAFLKLNSLQTDDTATYYCARPSNYYYFDYWGQGTTLTVSS
VL: DIVMTQSPSSLAVSAGERVTLSCKSSQSLFDRRTRKTYLAWYQQKPGQSPKLLISWASTRESGVPDRFTGSGSGTDFTLTISSVQAEDLAVYYCKQSYNLFTFGGGTKLEIK
As for B1, the “binding to cyclic peptide hTM4SF5EC2-C by ELISA” value in data set [1] was “specific binding”. Further, in data set [2], the “off rate (kd)” value is on record as 10^−5 /sec. Moreover, the “recognition of TM4SF5 protein by Western blot and immunoprecipitation” value in data set [3] is given as “recognize Myc-tagged recombinant TM4SF5 protein”. Also, the “progression of colon cancer (tumor volume and weight)” value in the data set with HT-29 cells was “attenuated progression of colon cancer”.
